Measurements taken from article PMC314469, “Protein Interaction Networks by Proteome Peptide Scanning” (PLoS Biology, 2004).

T1: amphyphisin SH3 (AMPH_HUMAN), P49418
T1 chain: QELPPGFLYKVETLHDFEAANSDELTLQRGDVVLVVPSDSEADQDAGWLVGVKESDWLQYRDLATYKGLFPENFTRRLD


Legend:
[1] = biological target: T1, amphyphisin SH3 (AMPH_HUMAN), P49418; experiment: SPOT array
[2] = biological target: endophilin SH3 (SH3G2_HUMAN), Q99962; experiment: SPOT array

Row | Binder | normalised SPOT signal, Boehringer light units (BLU); mean over the file's lines of this peptide [1] | normalised SPOT signal, Boehringer light units (BLU); mean over the file's lines of this peptide [2]
1 | LFPPLFRPQRPHSA [Q9ULW2 164-177] | 5720 | 10200
2 | LFFELRRPPQHGVL [Q9H6N9 50-63] | 12.7 | 168
3 | LETSLKRPKRPLFN [Q96RW7 67-80] | 1410 | 93.1
4 | LIRFLPRPIRQQLL [Q12789 943-956] | 1740 | 3730
5 | LGKIPLKPPPLELL [O15504 407-421] | 72.5 | 61.2
6 | LILPPPRPPLAVTS [O60241 813-827] | 1060 | 3500
7 | LGLSFRRPNVITLL [Q9ULA1 146-159] | 38.4 | 300
8 | LGPVPVRPPPGPEL [Q9Y5L9 821-835] | 33.4 | 81.8
9 | LGLPPGKPPSSSPL [Q9H7S9 349-363] | 23.4 | 45.5
10 | LGEVPRRPASRGVP [Q969P6 16-29] | 22.2 | 1050
11 | APPELRRPSHLHTS [Q8WU02 149-162] | 33.1 | 145
12 | LKGIFTRPSKLTRK [P30622 114-127] | 121 | 192
13 | LKEILKRPVDPIRA [O43630 494-507] | 5.8 | 55.3
14 | LHVQLNRPNKRNAM [Q13011 68-81] | 193 | 128
15 | LGDSLRRPQLRLWS [P41440 258-271] | 14.9 | 6
16 | LGLRLSRPYRLAAG [O14927 499-512] | 1650 | 315
17 | LEQLLLRPERPGDT [O43157 127-140] | 68.8 | 147
18 | LGLELGRPVRFLYE [P13942 112-125] | 218 | 245
19 | LEYVLFRPNRRYNQ [Q15018 147-160] | 451 | 54.6
20 | LKVWPPRPGRWPSF [Q9NQQ2 431-444] | 2610 | 1090
21 | LGLLFRRPEALQVG [Q13290 172-185] | 12.2 | 61.1
22 | LKAPPARPVKGAYR [Q99760 384-397] | 238 | 3650
23 | LGQKPQRPRRPASP [P07360 19-32] | 16800 | 34600
24 | LIRTFQRPDRVELM [Q9UMF0 113-126] | 6100 | 224
25 | LFNLIKRPDDEQRQ [Q9P260 301-314] | 16.2 | 34
26 | LGHPPAKPPLPPGP [Q96QH2 497-511] | 64.4 | 264

More lines, now with the values ahead:

Row | normalised SPOT signal, Boehringer light units (BLU); mean over the file's lines of this peptide [1] | normalised SPOT signal, Boehringer light units (BLU); mean over the file's lines of this peptide [2] | Binder
27 | 459 | 538 | LFIIPPKPPGRPQG [P81489 12-26]
28 | 3510 | 391 | LHESFPRPKRVSKD [P42568 55-68]
29 | 1500 | 1840 | LFQPPRRPGLGTVG [Q9HCK5 75-88]
30 | 46.5 | 169 | LIQELRRPKYSIYF [Q15715 82-95]
31 | 218 | 246 | LHGRPYRPPSPPPP [O75593 148-162]
32 | 269 | 14800 | LGRLPSRPPLPGSG [Q9Y570 9-23]
33 | 62 | 102 | LGASPAKPPSPGAP [Q8WXD9 1320-1334]
34 | 65.2 | 41.8 | LGPVPHRPPFEPGS [P54259 848-862]
35 | 1400 | 4020 | APLLPPRPPPLPPV [Q9NR05 56-70]
36 | 34.3 | 122 | LGGSPRRPSGRKGS [Q92729 834-847]
37 | 35.1 | 1320 | APFLPPKPPPPIIV [Q9BYZ6 230-244]
38 | 34.4 | 20 | LERRLKRPRTQGVV [Q9H9E5 251-264]
39 | 28.8 | 69 | LKVQLKRPKDANRP [Q9NR84 149-162]
40 | 4490 | 2280 | APPLPVRPPKTSPG [Q96FN5 451-465]
41 | 4.7 | 277 | LGKVIRRPPLTEKL [Q9NRD6 13-26]
42 | 49.4 | 596 | LHLVIRRPLETHPG [Q9H6Y5 142-155]
